{"source": "patent EP2014310A2", "about": "(Dyax Corporation, dated 2009)", "note": "Bridge positions count the residues as written; N and C are the ends."}
{"molecular_target": "T1, human KDR-Fc fusion (R&D Systems #357-KD-050) (human, UniProt P35968 20-764)", "T1 construct": "bought", "T1 sequence (P35968 20-764)": "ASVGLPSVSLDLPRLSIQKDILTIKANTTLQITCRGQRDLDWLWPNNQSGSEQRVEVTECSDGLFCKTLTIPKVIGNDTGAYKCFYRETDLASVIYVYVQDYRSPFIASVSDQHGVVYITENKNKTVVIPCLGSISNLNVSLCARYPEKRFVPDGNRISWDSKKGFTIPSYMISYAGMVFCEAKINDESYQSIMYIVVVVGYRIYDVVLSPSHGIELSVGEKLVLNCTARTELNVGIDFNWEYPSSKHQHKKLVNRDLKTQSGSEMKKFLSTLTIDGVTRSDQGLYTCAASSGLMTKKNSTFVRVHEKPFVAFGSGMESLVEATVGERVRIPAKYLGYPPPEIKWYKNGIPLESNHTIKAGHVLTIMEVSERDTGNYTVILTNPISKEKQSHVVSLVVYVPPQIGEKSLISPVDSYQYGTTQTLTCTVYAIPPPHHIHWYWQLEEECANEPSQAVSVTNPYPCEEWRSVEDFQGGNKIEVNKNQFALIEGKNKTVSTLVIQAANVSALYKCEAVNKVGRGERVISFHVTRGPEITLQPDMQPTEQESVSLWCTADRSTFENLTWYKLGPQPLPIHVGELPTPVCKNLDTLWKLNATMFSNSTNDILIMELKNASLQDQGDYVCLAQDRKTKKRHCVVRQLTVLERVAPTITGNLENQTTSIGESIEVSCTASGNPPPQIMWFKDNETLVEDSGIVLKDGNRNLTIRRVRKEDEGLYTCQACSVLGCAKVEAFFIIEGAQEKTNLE", "assay": "phage binding screen on KDR-Fc; class legend in paragraph 246"}
{"binder": "LSLCYNDMHGWWEHCQWY", "note": "[phage isolate LSLCYNDMHGWWEHCQWY]", "binding result": "binds"}
{"binder": "YSHCIETSMENIWFCDFD", "note": "[phage isolate YSHCIETSMENIWFCDFD]", "binding result": "binds"}
{"binder": "PPFCIYQEPSGQWWCYDH", "note": "[phage isolate PPFCIYQEPSGQWWCYDH]", "binding result": "binds"}
{"binder": "WDDCIWHMWLKKKDCNSG", "note": "[phage isolate WDDCIWHMWLKKKDCNSG]", "binding result": "binds"}
{"binder": "NGSCWYDFGWETEICFHN", "note": "[phage isolate NGSCWYDFGWETEICFHN]", "binding result": "binds"}
{"binder": "AGWCEYVAPQGAWRCFHN", "note": "[phage isolate AGWCEYVAPQGAWRCFHN]", "binding result": "binds"}
{"binder": "YSDCLFQLWKGSVCPPS", "note": "[phage isolate YSDCLFQLWKGSVCPPS]", "binding result": "binds"}
{"binder": "LDNCIWNVWKGVQDCEYS", "note": "[phage isolate LDNCIWNVWKGVQDCEYS]", "binding result": "binds"}
{"binder": "PGWCDFSPQLGQWMCDWF", "note": "[phage isolate PGWCDFSPQLGQWMCDWF]", "binding result": "binds"}
{"binder": "PGHCEYIWIDEQPWCVRL", "note": "[phage isolate PGHCEYIWIDEQPWCVRL]", "binding result": "binds"}
{"molecular_target": "T1, human KDR-Fc fusion (R&D Systems …)", "assay": "fluorescence anisotropy, fluorescein-labeled peptide", "units": {"Kd": "nM"}}
{"binder": "Ac-GDGWACAKWPWGGEICQPSDPGGGK-NH2 (disulfide 6-16 (inferred); not fully specified)", "note": "[SEQ ID NO:300]", "Kd": 1000}
{"binder": "Ac-GDYPWCHELSDSVTRFCVPWDPGGGK-NH2 (disulfide 6-17 (inferred); not fully specified)", "note": "[SEQ ID NO:293]", "Kd": 980}
{"binder": "Ac-AQRGDYQEQYWHQQLVEQLKLLGGK-NH2 (not fully specified)", "note": "[SEQ ID NO:308]", "Kd": 310}
{"binder": "Ac-GDGSWCEMRQDVGKWNCFSDDPGGGK-NH2 (disulfide 6-17 (inferred); not fully specified)", "note": "[SEQ ID NO:299]", "Kd": 620}
{"binder": "Ac-GDDHMCRSPDYQDHVFCMYWDPGGGK-NH2 (disulfide 6-17 (inferred); not fully specified)", "note": "[SEQ ID NO:295]", "Kd": 480}
{"binder": "Ac-GDNWECGWSNMFQKEFCARPDPGGGK-NH2 (disulfide 6-17 (inferred); not fully specified)", "note": "[SEQ ID NO:303]", "Kd": 210}
{"molecular_target": "T1, human KDR-Fc fusion (R&D Systems …)", "assay": "Biacore, KDR-Fc on CM5 chip, unlabeled peptide", "units": {"Kd": "nM"}}
{"binder": "Ac-AGPKWCEEDWYYCMITGTGGGK-NH2 (cysteine pairing not given here; also: C-terminal Lys fluorescein-labeled for some assays, unlabeled for others)", "note": "[SEQ ID NO:264]", "Kd": 27}
{"binder": "Ac-GDGWACAKWPWGGEICQPSDPGGGK-NH2 (disulfide 6-16 (inferred); not fully specified)", "note": "[SEQ ID NO:300]", "Kd": 1500}
{"binder": "Ac-GDYPWCHELSDSVTRFCVPWDPGGGK-NH2 (disulfide 6-17 (inferred); not fully specified)", "note": "[SEQ ID NO:293]", "Kd": 180}
{"binder": "Ac-AQDWYYDEILSMADQLRHAFLSGGGK-NH2 (not fully specified)", "note": "[SEQ ID NO:310]", "Kd": 50}
{"binder": "Ac-AQRGDYQEQYWHQQLVEQLKLLGGK-NH2 (not fully specified)", "note": "[SEQ ID NO:308]", "Kd": 5300}
{"binder": "Ac-GDGSWCEMRQDVGKWNCFSDDPGGGK-NH2 (disulfide 6-17 (inferred); not fully specified)", "note": "[SEQ ID NO:299]", "Kd": 180}
{"binder": "Ac-GDDHMCRSPDYQDHVFCMYWDPGGGK-NH2 (disulfide 6-17 (inferred); not fully specified)", "note": "[SEQ ID NO:295]", "Kd": 140}
{"binder": "Ac-GDNWECGWSNMFQKEFCARPDPGGGK-NH2 (disulfide 6-17 (inferred); not fully specified)", "note": "[SEQ ID NO:303]", "Kd": 990}
{"molecular_target": "T1, human KDR-Fc fusion (R&D Systems …)", "assay": "phage binding screen on KDR-Fc; class legend in paragraph 246", "remark": "another data set of the same source"}
{"binder": "WYHDGLHNERKPPSHWIDNV", "note": "[phage isolate WYHDGLHNERKPPSHWIDNV]", "binding result": "binds"}
{"binder": "GSDHVRVDNYWWNGMAWEIF", "note": "[phage isolate GSDHVRVDNYWWNGMAWEIF]", "binding result": "binds"}
{"binder": "PRLGDDFEEAPPLEWWWAHF", "note": "[phage isolate PRLGDDFEEAPPLEWWWAHF]", "binding result": "binds"}
{"binder": "ARMGDDWEEAPPHEWGWADG", "note": "[phage isolate ARMGDDWEEAPPHEWGWADG]", "binding result": "binds"}
{"binder": "DWYWREWMPMHAQFLADDW", "note": "[phage isolate DWYWREWMPMHAQFLADDW]", "binding result": "binds"}
{"binder": "AQMPPWWPLAVDALFDWFE", "note": "[phage isolate AQMPPWWPLAVDALFDWFE]", "binding result": "binds"}
{"binder": "LEEVFEDFQDFWYTEHIIVDR", "note": "[phage isolate LEEVFEDFQDFWYTEHIIVDR]", "binding result": "binds"}
{"binder": "KKEDAQQWYWTDYVPSYLYR", "note": "[phage isolate KKEDAQQWYWTDYVPSYLYR]", "binding result": "binds"}
{"binder": "DALEAPKRDWYYDWFLNHSP", "note": "[phage isolate DALEAPKRDWYYDWFLNHSP]", "binding result": "binds"}
{"binder": "STNGDSFVYWEEVELVDHPY", "note": "[phage isolate STNGDSFVYWEEVELVDHPY]", "binding result": "binds"}
{"binder": "GDYVYWEIIELTGATDHTPP", "note": "[phage isolate GDYVYWEIIELTGATDHTPP]", "binding result": "binds"}
{"binder": "RDEWGWTGVPYEGEMGYQIS", "note": "[phage isolate RDEWGWTGVPYEGEMGYQIS]", "binding result": "binds"}
{"binder": "QIEYVNDKWYWTGGYWNVPF", "note": "[phage isolate QIEYVNDKWYWTGGYWNVPF]", "binding result": "binds"}
{"binder": "EWDAQYWHDLRQQYMLDYIQ", "note": "[phage isolate EWDAQYWHDLRQQYMLDYIQ]", "binding result": "binds"}
{"binder": "AFPRFGGDDYWIQQYLRYTD", "note": "[phage isolate AFPRFGGDDYWIQQYLRYTD]", "binding result": "binds"}
{"binder": "AFPRFGGDDYWIQQYLRYTF", "note": "[phage isolate AFPRFGGDDYWIQQYLRYTF]", "binding result": "binds"}
{"binder": "QVQYQFFLGTPRYEQWDLDK", "note": "[phage isolate QVQYQFFLGTPRYEQWDLDK]", "binding result": "binds"}
{"binder": "QVQYQFILGTPRYEQWDPDK", "note": "[phage isolate QVQYQFILGTPRYEQWDPDK]", "binding result": "binds"}
{"binder": "MPPGFSYWEQAALHDDAQDL", "note": "[phage isolate MPPGFSYWEQAALHDDAQDL]", "binding result": "binds"}
{"binder": "FPSQMWQQKVSHHFFQHKGY", "note": "[phage isolate FPSQMWQQKVSHHFFQHKGY]", "binding result": "binds"}
{"binder": "RSWYLGPPYYEEWDPIPN", "note": "[phage isolate RSWYLGPPYYEEWDPIPN]", "binding result": "binds"}
{"binder": "PEDSEAWYWLNYRPTMFHQL", "note": "[phage isolate PEDSEAWYWLNYRPTMFHQL]", "binding result": "binds"}
{"binder": "PVTDWTPHHPKAPDVWLFYT", "note": "[phage isolate PVTDWTPHHPKAPDVWLFYT]", "binding result": "binds"}
{"binder": "TKWGPNPEHWQYWYSHYASS", "note": "[phage isolate TKWGPNPEHWQYWYSHYASS]", "binding result": "binds"}
{"binder": "WVTKQQFIDTYGRKEWTILF", "note": "[phage isolate WVTKQQFIDTYGRKEWTILF]", "binding result": "binds"}
{"binder": "EWYWTEHVGMKHGFFV", "note": "[phage isolate EWYWTEHVGMKHGFFV]", "binding result": "binds"}
{"binder": "ISPWREMSGWGMPWITAVPH", "note": "[phage isolate ISPWREMSGWGMPWITAVPH]", "binding result": "binds"}
{"binder": "RGDYQEQYWHQQLVEQLKLL", "note": "[phage isolate RGDYQEQYWHQQLVEQLKLL]", "binding result": "binds"}
{"binder": "PSNSWAAVWEDDMQRLMRQH", "note": "[phage isolate PSNSWAAVWEDDMQRLMRQH]", "binding result": "binds"}
{"binder": "WLYDYWDRQQKSEEFKFWSQ", "note": "[phage isolate WLYDYWDRQQKSEEFKFWSQ]", "binding result": "binds"}
{"binder": "SYEQWLPQYWAQYKSNYFL", "note": "[phage isolate SYEQWLPQYWAQYKSNYFL]", "binding result": "binds"}
{"binder": "FDVVNWGDGIWYAYPS", "note": "[phage isolate FDVVNWGDGIWYAYPS]", "binding result": "binds"}
{"binder": "DWYWQRERDKLREHYDDAFW", "note": "[phage isolate DWYWQRERDKLREHYDDAFW]", "binding result": "binds"}
{"binder": "WESDYWDQMRQQLKTAYMKV", "note": "[phage isolate WESDYWDQMRQQLKTAYMKV]", "binding result": "binds"}
{"binder": "EEQQALYPGCEPAEHWVYAG", "note": "[phage isolate EEQQALYPGCEPAEHWVYAG]", "binding result": "binds"}
{"binder": "DWYYDEILSMADQLRHAFLS", "note": "[phage isolate DWYYDEILSMADQLRHAFLS]", "binding result": "binds"}
{"binder": "VSKGSIDVGEGISYWEIIEL", "note": "[phage isolate VSKGSIDVGEGISYWEIIEL]", "binding result": "binds"}
{"binder": "WYYDWFHNQRKPPSDWIDNL", "note": "[phage isolate WYYDWFHNQRKPPSDWIDNL]", "binding result": "binds"}
{"binder": "AFEIEYWDSVRNKIWQHFPD", "note": "[phage isolate AFEIEYWDSVRNKIWQHFPD]", "binding result": "binds"}
{"binder": "EPEGYAYWEVITLYHEEDGD", "note": "[phage isolate EPEGYAYWEVITLYHEEDGD]", "binding result": "binds"}
{"binder": "MPPGFSYWEQVVLHDDAQVL", "note": "[phage isolate MPPGFSYWEQVVLHDDAQVL]", "binding result": "binds"}
